Reference: publication PMC8610173

Biological target: NF-Y (NF-YA confirmed by supershift) ((K562 cells)) (UniProt P23511)
Assay: EMSA

NF-Y (NF-YA confirmed by supershift) ((K562 cells)), sequence (P23511 whole entry): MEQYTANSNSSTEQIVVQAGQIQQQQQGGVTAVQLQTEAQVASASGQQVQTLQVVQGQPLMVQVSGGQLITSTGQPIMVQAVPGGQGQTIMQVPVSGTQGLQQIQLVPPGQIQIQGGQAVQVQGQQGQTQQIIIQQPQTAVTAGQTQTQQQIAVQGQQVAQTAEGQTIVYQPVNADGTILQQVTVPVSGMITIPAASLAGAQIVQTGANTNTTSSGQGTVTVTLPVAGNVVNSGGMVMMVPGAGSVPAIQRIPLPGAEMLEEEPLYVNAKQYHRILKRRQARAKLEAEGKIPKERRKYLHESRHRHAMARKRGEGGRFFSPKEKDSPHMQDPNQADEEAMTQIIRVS

Sequence | binding signal (fold of WT band intensity (reference)) | binding signal (fold of WT band intensity)
AGCCTTGCCTTGACCAATAGCCTTGACAA (double strand) [HBG distal CCAAT box WT] | 1 | –
AGCCTTGCCTTGACCAATCGCCTTGACAA (double strand) [HBG distal CCAAT box -110 A>C] | – | 1.5
